In the supplement of paper PMC10567573:

B1: TMEM175 (parent)
chain: ALLHQAETLQPSVWFGGREHVLMF
B2: ZNF649 (parent)
chain: LTEHKRIHTGKKPHVCSLCGKAFY

Variants of: B1
Test: protein stability index of a GFP-peptide fusion (GPS, HEK-293T) (PSI 1-6); higher = more stable
Details: c terminus: a fixed tail appended
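Note: lentivirally expressed fusions sorted by FACS into six bins by GFP to DsRed ratio, PSI derived from sequencing read proportions per bin multiplied by bin number.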

Protein stability index, by site and new letter:
L9: F 2.49, G 2.85, P 2.11
P11: A 1.78, G 1.24, K 2.59, D 2.79, H 1.77
T8: Y 2.91, S 1.65
E19: N 1.42, C 3.88, Y 1.81, W 2.92, L 2.74, S 2.2
A1: F 2.59, C 1.71, K 2.35, Y 2.71, Q 2.96
S12: H 1.15
V13: P 2.16, D 2.16, Y 1.69, R 2.02, I 2.25, S 2.73
W14: V 1.91, A 1.66, Y 2.11, F 2.48
F15: S 1.57, T 1.85, E 1.57, G 2.22
G17: P 1.05, A 3.03, W 1.67, Q 1.4
H20: T 3.65, R 4.2, S 2.21, D 1.29
L22: T 1.78, S 2.06, Y 2.94, E 2.09, G 1.77, P 2.05, V 3.06
F24: T 2, M 3.11, Q 2.4, W 2.13, N 3.21, G 1.47, D 2.69
Q10: M 1.96, P 2.16
Q5: E 1.07, V 3.06, F 1.43
E7: W 3.4, H 3, D 1, Q 2.71, Y 1.78, F 2.64
M23: N 1.58, I 2.59, L 3.66, P 1.35, E 3.67, A 1.2
L2: T 1.53, G 1.2, N 1.06, C 3.82, M 1.93, D 2.01, E 1.93
V21: E 1.53, I 1.53, Y 1.7, S 1.52, A 1.42, M 2.55, N 2.02
R18: L 3.03, V 1.44, I 3.13, Q 2.33, T 2.46, A 2.59, C 3.1, S 1.15, F 2.29, D 1.93
H4: S 1.99, Y 2.17, E 1.56, W 3.3, C 3.01, Q 1.73, A 1.9
A6: S 1.68, Q 1.87, D 2.55, P 2.43, H 2.17
L3: S 2.25, N 1.04, P 1.61, K 1.71, Q 1.54, G 2.83
G16: H 2.1, P 1.14, T 1.47, N 2.41, D 2.04

Variants of: B2
Test: as above
Details: c terminus: a fixed tail appended

Protein stability index of substitutions, site by site:
L1: N 2.81, I 2.18, S 2.81, Q 3.02, R 3.27, A 3.24, E 2.87, K 3.22, T 2.58, V 2.57, G 3.19, D 3.45, M 2.3, C 3.22, W 2.17, P 3.05, H 2.97, Y 3.44, F 2.18
K12: Q 2.39, A 2.44, M 2.28, E 2.75, I 2.5, L 2.5, D 3.14, F 2.32, R 2.61, G 3.6, H 1.97, N 3.3, P 2.31, C 2.81, S 1.78
T9: V 3.62, Q 2.31, L 2.51, E 2.98, M 2.85, G 2.8, H 3.04, I 1.87, W 3.49, Y 2.3, A 2.04, C 2.32, P 2.85, F 2.8, S 3.36, K 2.35, D 3.3, R 2.45
R6: C 4.05, T 3.08, G 1.94, N 2.58, L 2.14, S 2.25, Q 4.11, I 2.71, D 2.93, K 2.33, F 2.33, Y 2.5, E 3.42, W 2.75, H 3.63
K5: F 2.25, S 2.3, I 3, V 2.48, R 2.63, N 3.39, C 4.3, L 2.23, E 3.03, A 3.06, W 3.18, M 2.79, D 3.35, Q 2.79, T 2.88, P 1.15
E3: I 1.96, L 1.15, H 1.68, P 2.45, F 2.31, C 2.38, M 1.89, K 2.93, Q 2.32, A 2.47, D 2.71, V 2.23, S 2.59, G 1.79, Y 2.89, N 2.22, R 1.86, T 1.67, W 1.71
I7: G 2.78, R 3.93, T 2.71, A 2.52, S 3.72, P 2.38, N 2.85, W 2.5, K 1.98, L 3.11, M 2.4, Q 2.73, H 2.16, V 2.58, E 2.71, C 2.6, F 2.18, D 2.31
G10: Q 2.28, I 2.49, K 2.96, F 3.73, A 2.78, P 3.22, L 2.27, W 2.97, N 1.98, H 2.16, D 2.63, S 2.19, T 2.83, E 3.6, Y 2.45, C 3.76, M 3.35, V 2.28
K11: H 2.23, M 2.56, Y 2.5, C 2.43, N 2.35, P 2.76, D 3.21, T 2.62, I 2.77, S 2.43, R 1.76, A 2.32, Q 3.01, W 3.42, E 3.4, F 2.79, L 2.96, V 2.88, G 2.54
H4: Y 2.36, I 2.19, R 2.24, N 2.84, F 2.33, C 2.78, K 2.28, Q 3.31, E 3.02, D 2.9, A 2.22, G 2.4, P 2.43, L 2.11, W 2.78, M 2.47, T 2.52, S 2.58, V 1.94
H8: E 3.25, I 2.17, G 2.13, D 2.67, F 2.71, T 2.58, W 2.06, M 2.49, Y 2.89, K 2.14, C 3.2, L 2.29, R 4.2, A 2.86, Q 3.1, P 4.21, V 2.18
T2: E 3.01, I 2.04, D 3.12, P 2.32, W 2, L 2.09, G 2.25, V 2.27, F 1.7, N 2.32, C 3.94, K 2.26, H 2.46, Y 2.31, M 2.16, A 2.57, S 3, R 2.78, Q 2.58
